{"source": "paper PMC3646729", "about": "“Recruitment, Assembly, and Molecular Architecture of the SpoIIIE DNA Pump Revealed by Superresolution Microscopy” (PLoS Biology, 2013)", "proteins": {"B1": {"name": "SpoIIIE-GFP fusion (natural protein, B. subtilis, UniProt P21458 1-787, looked up)", "chain": "MAKKKRKSRKKQAKQLNIKYELNGLLCIAISIIAILQLGVVGQTFIYLFRFFAGEWFILCLLGLLVLGVSLFWKKKTPSLLTRRKAGLYCIIASILLLSHVQLFKNLTHKGSIESASVVRNTWELFLMDMNGSSASPDLGGGMIGALLFAASHFLFASTGSQIMAIVMILIGMILVTGRSLQETLKKWMSPIGRFIKEQWLAFIDDMKSFKSNMQSSKKTKAPSKKQKPARKKQQMEPEPPDEEGDYETVSPLIHSEPIISSFSDRNEEEESPVIEKRAEPVSKPLQDIQPETGDQETVSAPPMTFTELENKDYEMPSLDLLADPKHTGQQADKKNIYENARKLERTFQSFGVKAKVTQVHLGPAVTKYEVYPDVGVKVSKIVNLSDDLALALAAKDIRIEAPIPGKSAIGIEVPNAEVAMVSLKEVLESKLNDRPDAKLLIGLGRNISGEAVLAELNKMPHLLVAGATGSGKSVCVNGIITSILMRAKPHEVKMMMIDPKMVELNVYNGIPHLLAPVVTDPKKASQALKKVVNEMERRYELFSHTGTRNIEGYNDYIKRANNEEGAKQPELPYIVVIVDELADLMMVASSDVEDSITRLSQMARAAGIHLIIATQRPSVDVITGVIKANIPSRIAFSVSSQTDSRTILDMGGAEKLLGRGDMLFLPVGANKPVRVQGAFLSDDEVEKVVDHVITQQKAQYQEEMIPEETTETHSEVTDELYDEAVELIVGMQTASVSMLQRRFRIGYTRAARLIDAMEERGVVGPYEGSKPREVLLSKEKYDELSS", "notes": "SpoIIIE DNA translocase of Bacillus subtilis (strain PY79 derivative); the SpoIIIE gene was replaced by a SpoIIIE-GFP fusion, no wild-type copy left; The fusion is said to be fully functional, so it is probably the whole protein; also called SpoIIIE ATPase; SpoIIIE DNA translocase; source: B. subtilis PY79 derivative, SpoIIIE-GFP fusion under the endogenous promoter, in live cells"}}, "target": "the molecule itself", "assay": "two-photon number and brightness analysis (N&B, fluorescence fluctuation microscopy); live B. subtilis cells with SpoIIIE-GFP; clusters at sporulation and division septa, after induction of sporulation or in exponential growth; brightness normalised to monomeric freely diffusing GFP; excitation at 930 nm, 50 raster scans"}
{"protein": "B1", "values": [{"measurement": "stoichiometry N", "result": 6}]}
